This note sets out measurements from PMC3139092 (Journal of Biological Inorganic Chemistry, 2011).

Numbering of substitutions follows the chain as printed.

For data set [1], the target named is T1, mutant Val87 (M11) (Priestia megaterium, UniProt P14779, E144G/E268V/E65G/F82I/F88V/G416S/H286Y/L189Q/R48L/Y199C).
T1 sequence (P14779 1-1049 R48L/E65G/F82I/F88V/E144G/L189Q/Y199C/E268V/H286Y/G416S): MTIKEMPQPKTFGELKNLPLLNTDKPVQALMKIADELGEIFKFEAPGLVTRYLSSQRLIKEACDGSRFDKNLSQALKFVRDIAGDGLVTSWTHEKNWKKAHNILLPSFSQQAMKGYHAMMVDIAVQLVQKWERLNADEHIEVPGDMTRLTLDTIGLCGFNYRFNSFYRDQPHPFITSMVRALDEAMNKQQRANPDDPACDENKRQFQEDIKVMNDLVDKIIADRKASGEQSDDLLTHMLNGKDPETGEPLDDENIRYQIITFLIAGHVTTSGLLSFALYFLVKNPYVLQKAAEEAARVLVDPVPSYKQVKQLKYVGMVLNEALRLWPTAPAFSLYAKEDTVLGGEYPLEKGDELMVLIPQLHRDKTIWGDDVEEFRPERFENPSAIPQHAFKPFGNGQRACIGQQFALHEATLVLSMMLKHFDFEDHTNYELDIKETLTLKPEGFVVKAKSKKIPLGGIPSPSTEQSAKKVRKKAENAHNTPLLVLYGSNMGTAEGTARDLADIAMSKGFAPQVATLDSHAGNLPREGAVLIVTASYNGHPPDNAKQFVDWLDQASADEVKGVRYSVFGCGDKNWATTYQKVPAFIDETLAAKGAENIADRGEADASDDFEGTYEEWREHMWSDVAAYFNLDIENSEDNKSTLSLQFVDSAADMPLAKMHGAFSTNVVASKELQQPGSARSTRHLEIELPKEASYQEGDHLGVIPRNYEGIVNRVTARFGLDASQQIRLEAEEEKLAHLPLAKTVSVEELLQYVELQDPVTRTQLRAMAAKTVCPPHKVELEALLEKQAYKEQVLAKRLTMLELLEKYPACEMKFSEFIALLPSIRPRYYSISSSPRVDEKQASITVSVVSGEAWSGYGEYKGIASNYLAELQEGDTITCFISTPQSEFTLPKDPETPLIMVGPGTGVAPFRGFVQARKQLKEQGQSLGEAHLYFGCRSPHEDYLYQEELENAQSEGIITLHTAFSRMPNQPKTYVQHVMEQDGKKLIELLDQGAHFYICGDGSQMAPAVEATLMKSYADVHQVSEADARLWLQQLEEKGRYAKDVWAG
The data set is classed as biochemical, Bacillus megaterium. The note with it: 1 μM ketoconazole.

Data set [2] in a line: Alkoxyresorufin O-dealkylation by CYP102A1 M11 mutants and wild-type CYP102A1. It is filed as biochemical. The note with it: 20 µM alkoxyresorufin, 20 nM P450 BM3, 25 °C.
The nature of data set [3]: Alkoxyresorufin-induced NADPH consumption. It is filed as biochemical. To be noted: 20 nM enzyme, 200 µM NADPH, 25 °C.
The nature of data set [4]: Lauric acid induced NADPH consumption. It is filed as biochemical. To be noted: 0.1 mM lauric acid.
[5] abbreviates: benzyloxyresorufin as the substrate, data not shown.

`CC(=O)N1CCN(c2ccc(OCC3COC(Cn4ccnc4)(c4ccc(Cl)cc4Cl)O3)cc2)CC1` (centres unmarked) [ketoconazole]: in data set [1] (0.1 mM lauric acid), the “Inhibition of lauric acid induced NADPH consumption” value is recorded as “completely blocked”. Moreover, in data set [1] (setting [5]), the “Inhibition of substrate-induced NADPH consumption” value was “almost completely block” and the “Inhibition of the O-dealkylation reaction” value is “almost completely block”.

B1: Wild type (Phe87): Cytochrome P450 BM3 (CYP102A1) from Bacillus megaterium, wild type, Phe at position 87 (protein, UniProt P14779 1-1049, looked up)
Bifunctional cytochrome …: T1 sequence (P14779 1-1049 R48L/E65G/F82I/F88V/E144G/L189Q/Y199C/E268V/H286Y/G416S) with L48R, G65E, I82F, V88F, G144E, Q189L, C199Y, V268E, Y286H, S416G
Take B1: the “Specific activity of alkoxyresorufin O-dealkylation, side chain n-Heptyl” value in data set [2] (substrate n-heptoxyresorufin) is reported as 0.17 nmol resorufin/min/nmol P450. In addition, the “Specific activity of alkoxyresorufin O-dealkylation, side chain n-Octyl” value in data set [2] (substrate n-octoxyresorufin) was 0.18 nmol resorufin/min/nmol P450. For the same molecule, the “Specific activity of NADPH consumption, DMSO” value in data set [3] (no substrate, solvent DMSO (2%) only) was determined as 45 nmol NADPH/min/nmol P450. Also, the “Specific activity of alkoxyresorufin-induced NADPH consumption, side chain Ethyl” value in data set [3] (substrate ethoxyresorufin 20 µM) is recorded as 3,970 nmol NADPH/min/nmol P450. The “Effect of lauric acid on NADPH consumption” value in data set [4] is recorded as “strongly stimulated”.
